Numbering of substitutions follows the chain as printed.
Columns and labels:
[1] = target: Sumo-SiwR (His6-TEV-Sumo-linker fused to the N-terminus of SiwR, stress-involved WYL domain-containing regulator, MSMEG_1359) (Mycobacterium smegmatis) (UniProt A0QS56); assay: SEC; analytical gel filtration, Superdex 200 Increase 10/300 GL, buffer GF (50 mM HEPES-KOH pH 7.0, 150 mM NaCl, 0.5 mM TCEP, 1 mM EDTA); SiwR 40 uM protomer, MSMEG_1357 or MSMEG_1356 100 uM protomer; incubated at 37 °C for 20 min, run at 0.5 mL/min at room temperature
[2] = target: MSMEG_1356 (DUF664 family protein, DinB/YfiT-like putative metalloenzymes superfamily) (Mycobacterium smegmatis) (UniProt A0QS54); assay: as above
[3] = target: MSMEG_1356 (DUF664 family protein, DinB/YfiT-like putative metalloenzymes superfamily) (Mycobacterium smegmatis) (UniProt A0QS54); assay: SEC; gel filtration step of the purification, Superdex 75 10/300 GL 24 mL, after dialysis against buffer D (50 mM HEPES-KOH pH 7.0, 150 mM NaCl, 0.5 mM TCEP)
Sumo-SiwR [4] = target: T1, Sumo-SiwR (Mycobacterium smegmatis, UniProt A0QS56 1-320); assay: fluorescence anisotropy; EMSA: 5 mM HEPES-KOH pH 7.0, 30 mM NaCl, 2.5% Ficoll 400K, 1% glycerol, 5 nM probe (10 nM in Fig. 2a legend), 37 °C 15 min; anisotropy: 5 mM HEPES-KOH pH 7, 30; settings: protein: recombinant, tags: His6-TEV-Sumo N-terminal fusion, chain copies: 2
T1 sequence: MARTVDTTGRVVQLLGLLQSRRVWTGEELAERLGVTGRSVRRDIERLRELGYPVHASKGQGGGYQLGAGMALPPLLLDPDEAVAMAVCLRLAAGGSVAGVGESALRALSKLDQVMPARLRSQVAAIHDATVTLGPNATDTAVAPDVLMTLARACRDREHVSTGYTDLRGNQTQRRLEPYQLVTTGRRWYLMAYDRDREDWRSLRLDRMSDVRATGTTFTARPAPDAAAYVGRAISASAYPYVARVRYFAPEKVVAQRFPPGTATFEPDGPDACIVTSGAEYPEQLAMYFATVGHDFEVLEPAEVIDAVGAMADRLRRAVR

Sumo-SiwR R204A-R207A [5] = target: T2, Sumo-SiwR R204A-R207A (Mycobacterium smegmatis, UniProt A0QS56 1-320, R204A;R207A); assay: as above; settings: protein: recombinant; tags: His6-TEV-Sumo N-terminal fusion; chain copies: 2; label: FAM
T2 sequence: T1 sequence with R204A, R207A

Sumo-SiwR [6] = target: T1, Sumo-SiwR; assay: EMSA; EMSA: 5 mM HEPES-KOH pH 7.0, 30 mM NaCl, 2.5% Ficoll 400K, 1% glycerol, 5 nM probe (10 nM in Fig. 2a legend), 37 °C 15 min; anisotropy: 5 mM HEPES-KOH pH 7, 30; settings: protein: recombinant; tags: His6-TEV-Sumo N-terminal fusion; chain copies: 2; label: 5'-FAM on strand 1; blunt
Sumo-SiwR [7] = target: T1, Sumo-SiwR; assay: fluorescence anisotropy; Kd for SiwR dimer; EMSA: 5 mM HEPES-KOH pH 7.0, 30 mM NaCl, 2.5% Ficoll 400K, 1% glycerol, 5 nM probe (10 nM in Fig. 2a legend), 37 °C 15 min; anisotropy: 5 mM HEPES-KOH pH 7, 30; settings: protein: recombinant; tags: His6-TEV-Sumo N-terminal fusion; chain copies: 2; label: 5'-FAM on strand 2; blunt
Sumo-SiwR R204A-R207A [8] = target: T2, Sumo-SiwR R204A-R207A; assay: EMSA; comparable to wild type; EMSA: 5 mM HEPES-KOH pH 7.0, 30 mM NaCl, 2.5% Ficoll 400K, 1% glycerol, 5 nM probe (10 nM in Fig. 2a legend), 37 °C 15 min; anisotropy: 5 mM HEPES-KOH pH 7, 30; settings: protein: recombinant; tags: His6-TEV-Sumo N-terminal fusion; chain copies: 2; label: 5'-FAM on strand 2; blunt
[9] = target: the molecule itself; assay: SEC; analytical gel filtration, Superdex 200 Increase 10/300 GL, buffer GF (50 mM HEPES-KOH pH 7.0, 150 mM NaCl, 0.5 mM TCEP, 1 mM EDTA); SiwR 40 uM protomer, MSMEG_1357 or MSMEG_1356 100 uM protomer; incubated at 37 °C for 20 min, run at 0.5 mL/min at room temperature

For “Sumo-SiwR (His6-TEV-Sumo-linker fused to the N-terminus of SiwR, stress-involved WYL domain-containing regulator, MSMEG_1359) (from UniProt A0QS56 1-320) (natural protein)”, which stoichiometry N [1] is on record?
The stoichiometry N was 2.

How did the stoichiometry N [2] turn out when “MSMEG_1356 (DUF664 family protein, DinB/YfiT-like putative metalloenzymes superfamily) (from UniProt A0QS54 1-203) (natural protein)” was run?
Its stoichiometry N is 2.

What about the stoichiometry N [3] of the same molecule?
Its stoichiometry N is 2.

B1: 3' tailed DNA (dsDNA)
DNA 1: GCAGTCAGGTCAATCCGACGACTG
DNA 2: TGACCTGACTGC
How did the Kd (Sumo-SiwR [4]; label: FAM on strand 1, 12 bp duplex, 3' overhang 12 nt on strand 1) turn out when B1 was run?
Its Kd is 702 nM.

B2: polyT20 (ssDNA)
DNA: TTTTTTTTTTTTTTTTTTTT
How did the Kd (Sumo-SiwR [4]; label: FAM) turn out when B2 was run?
The Kd was 182 nM.

Does B2 bind (Sumo-SiwR R204A-R207A [5])?
Result: no binding

B3: DNA fork mimic (dsDNA)
DNA 1: CGTCAGTCCAGTATCCGACGACTG
DNA 2: CAGTCGTCGGATTGACCTGACTGC
With B3 as the molecule, how does the Kd (Sumo-SiwR [4]; label: 5'-FAM on strand 1, fork 1:2, 12 bp duplex with 12-nt 5' tail (strand 1) and 12-nt 3' tail (strand 2)) read?
The Kd was 898 nM.

B4: fragment a (dsDNA)
DNA 1: GTGACCCACCCTGACAGGCATATAGGACAGT
DNA 2: ACTGTCCTATATGCCTGTCAGGGTGGGTCAC
Does B4 bind (Sumo-SiwR [6])?
Result: no binding

B5: fragment c (dsDNA)
DNA 1: TGACAGGCATATAGGACAGTTCCGGTCCTAAAAGTGCGGC
DNA 2: GCCGCACTTTTAGGACCGGAACTGTCCTATATGCCTGTCA
Does B5 bind (Sumo-SiwR [6])?
Result: binds

B6: msmeg_1357-56 promoter (dsDNA)
DNA 1: TGACCCACCCTGACAGGCATATAGGACAGTTCCGGTCCTAAAAGTGCGGCAGACTTGTCG
DNA 2: CGACAAGTCTGCCGCACTTTTAGGACCGGAACTGTCCTATATGCCTGTCAGGGTGGGTCA
Which results are given for B6?
Kd (Sumo-SiwR [7]): 651 nM; binding result (Sumo-SiwR R204A-R207A [8]): binds

B7: 12-nt ssDNA (ssDNA)
DNA: CGTCAGTCCAGT
For B7, which Kd (Sumo-SiwR [4]; label: 5'-FAM) is on record?
The Kd was 178 nM.

B8: fragment b (dsDNA)
DNA 1: TCCGGTCCTAAAAGTGCGGCAGACTTGTCGC
DNA 2: GCGACAAGTCTGCCGCACTTTTAGGACCGGA
Does B8 bind (Sumo-SiwR [6])?
Result: no binding

B9: 5' tailed DNA (dsDNA)
DNA 1: CGTCAGTCCAGT
DNA 2: GTCAGCAGCCTAACTGGACTGACG
B9 was tested. Which Kd (Sumo-SiwR [4]; label: 5'-FAM on strand 1, 12 bp duplex, 5' overhang 12 nt on strand 2) did it give?
The Kd was 306 nM.

B10: MSMEG_1357 (DinB_2 family protein, DinB/YfiT-like putative metalloenzymes superfamily) (natural protein, Mycobacterium smegmatis, UniProt A0QS55 1-175, looked up)
chain: MDIDLIADQLDFHWTHQLRPRLDGLTDDEYFWQPVPGCWTVHADGSIDFSYPEPQPTPFTTIAWRLAHVIVGVLAMRNHSHFGGPPADYQTWPYATDAKTALEQLDDAHRNWITGVRALSEDDLQRPVGPAEGPWADHPMSELVLHINREVIHHGAEIACIRDLYAHTNNTAEEN
notes: MSMEG_1357, DinB_2 family (pfam12867) protein of Mycobacterium smegmatis; expressed from a pET21-His6-TEV-MSMEG_1357 plasmid; The construct name puts His6-TEV before the protein; No TEV cleavage is described; also called His6-TEV-MSMEG_1357
With B10 as the molecule, how does the “stoichiometry N” value [9] read?
The value was 2.

B11: 12-nt ssRNA (ssRNA)
RNA: CGUCAGUCCAGU
Does B11 bind (Sumo-SiwR [4])?
Result: no binding

B12: fragment d (dsDNA)
DNA 1: GGCATATAGGACAGTTCCGGTCCTAAAAGT
DNA 2: ACTTTTAGGACCGGAACTGTCCTATATGCC
Does B12 bind (Sumo-SiwR [6])?
Result: binds

B13: 12-nt ssDNA 8-oxoG (ssDNA)
DNA: CGTCAGTCCAGT
modifications: 8-oxoguanine at position 6
How did the Kd (Sumo-SiwR [4]; label: 5'-FAM) turn out when B13 was run?
The Kd was 227 nM.
